Biological target: T1, Colicin E9 OBS1 peptide 2-18 (Escherichia coli, UniProt P09883)
T1 chain: SGGDGRGHNTGAHSTSG
Test: ITC

B1: OmpF (protein)
chain: AEIYNKDGNKVDLYGKAVGLHYFSKGNGENSYGGNGDMTYARLGFKGETQINSDLTGYGQWEYNFQGNNSEGADAQTGNKTRLAFAGLKYADVGSFDYGRNYGVVYDALGYTDMLPEFGGDTAYSDDFFVGRVGGVATYRNSNFFGLVDGLNFAVQYLGKNERDTARRSNGDGVGGSISYEYEGFGIVGAYGAADRTNLQEAQPLGNGKKAEQWATGLKYDANNIYLAANYGETRNATPITNKFTNTSGFANKTQDVLLVAQYQFDFGLRPSIAYTKSKAKDVEGIGDVDLVNYFEVGATYYFNKNMSTYVDYIINQIDSDNKLGVGSDDTVAVGIVYQF
B1 gave a Kd of about 1 µM.

Reference: paper PMC3856478 (2013)
